Data published in the supplement of paper PMC10567573.

B1: PTPRD (parent)
chain: ELDELLKEISRKRRSIRYGREVEL

Variants of: B1
Assay: protein stability index of a GFP-peptide fusion (GPS, HEK-293T) (PSI 1-6); higher = more stable
Conditions: c terminus: a fixed tail appended
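Also: lentivirally expressed fusions sorted by FACS into six bins by GFP to DsRed ratio, PSI derived from sequencing read proportions per bin multiplied by bin number.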

Protein stability index: each site, then its substitutions
R11: C 2.94, D 4.06, E 3.19, F 2.76, G 2.01, H 2.45, I 2.45, K 1.84, L 3.04, M 2.15, N 2.34, P 3.04, Q 2.55, S 2.49, T 3.21, V 3.18, W 2.3, Y 2.62
K12: A 1.99, C 2.49, D 2.39, E 2.32, F 1.29, G 2.26, H 2.03, I 1.66, L 1.95, M 2.11, P 2.53, Q 1.81, R 2.49, S 2.63, T 2.56, V 2.23, W 1.66, Y 1.55
R13: A 2.38, C 1.8, D 4.49, E 3.07, F 2.06, G 2.96, H 2.14, I 2.23, K 2.54, L 1.46, M 2.21, N 3, P 3.3, Q 2.36, S 3.25, T 2.28, V 1.55, W 1.72, Y 1.43
R14: A 2.02, C 2.19, D 2.65, E 2.73, F 1.96, G 3.16, H 2.92, I 1.99, K 2.39, L 3.77, M 2.03, N 2.1, P 2.64, Q 2.55, S 2.9, T 2.38, V 2.42, W 1.73, Y 1.66
S15: A 2.45, D 1.91, E 2.65, F 2.27, G 2.44, H 2.89, I 2.29, K 1.88, L 2.04, M 2.54, N 2.65, P 2.6, Q 3.4, R 2.22, T 2.99, V 2.29, W 1.59, Y 2.65
I16: A 1.9, C 2.81, E 3.62, F 1.81, G 3.21, H 2.37, K 1.9, L 2.42, M 2.54, N 2.98, P 2.43, Q 3.12, R 1.72, S 3.4, T 2.57, V 2.35, W 1.8, Y 1.75
R17: A 2.39, C 2.34, D 3.33, E 2.64, F 1.63, G 2.19, H 2.06, I 2.46, K 2.17, L 2.55, M 2.12, N 2.75, P 2.97, Q 2.68, S 2.44, T 2.15, V 2.27, W 1.85, Y 2.6
Y18: A 2.13, C 1.67, D 2.6, E 2.96, F 2.33, G 2.51, H 2.33, I 2.35, K 2.46, L 2.59, M 2.22, N 2.74, P 2.78, Q 2.43, R 2.33, S 2.91, T 2.17, V 1.95, W 1.84
G19: A 2.34, C 2.7, D 2.22, E 2.71, F 1.71, H 2.41, I 2.05, K 2.06, L 2.13, M 2.41, N 2.47, P 2.17, Q 2.33, R 1.96, S 2.04, T 2.37, V 3.13, W 2.9, Y 2.1
